The assay concerns the target SARS-CoV-1 S-2P (SARS-CoV-1).

The substance CV3-25 (antibody) showed an IC50 of neutralisation of SARS-CoV-1 pseudovirus of 2.1 µg/mL.

For the origin of these results see publication PMC8216847.
